# Assay results as given in publication PMC8855783.
# B1: VHH-2g-42 (VHH)
# VHH: QVQLVESGGGLVQPGGRLRLSCAASGFTFRTYAMQWYRQSPGTERELVAAISNIGGVTDYGDSVKGRFTISRDNAKTTVYLEMNSLKPEDTATYYCSAVRLPQRYWGRGTQVTVSS
# B2: VHH-2w-64 (VHH)
# VHH: QVQLVESGGGLVQAGGSLRLSCAASGFTFDDYSIAWFRQAPGKEREGVSCISSSDGSAYYADSVKGRFTISSDNAKNTVYLQMNSLKPEDTAVYYCAAVWARVCRNPYDYWGQGTQVTVSS
# Experiments:
# NBD P9 PAI-1 = NBD P9 PAI-1 (UniProt P05121)
# wild-type PAI-1 (human) [1] = target: wild-type PAI-1 (human) (UniProt P05121)
# wild-type PAI-1 (human) [2] = target: wild-type PAI-1 (human) (UniProt P05121); remark: listed apart in the source
# wild-type PAI-1 (human) [3] = target: wild-type PAI-1 (human) (UniProt P05121); remark: listed apart in the source
molecule,measurement,setting,value
two-chain tissue-type plasminogen activator (enzyme),"Km ([PA] at half-saturation) of RCL insertion, no Nb, −Vn",NBD P9 PAI-1,0.22 µM
same,"Km of RCL insertion, with Nb42, −Vn",NBD P9 PAI-1,1.2 µM
same,"Km of RCL insertion, with Nb42 and Nb64, −Vn",NBD P9 PAI-1,1.4 µM
same,"Km of RCL insertion, with Nb64, −Vn",NBD P9 PAI-1,0.17 µM
same,"klim of RCL insertion (stopped-flow NBD fluorescence), no Nb, −Vn",NBD P9 PAI-1,1.5 s⁻¹
same,"klim of RCL insertion, with Nb42 and Nb64, −Vn",NBD P9 PAI-1,5.2 s⁻¹
same,"klim of RCL insertion, with Nb64, −Vn",NBD P9 PAI-1,1.4 s⁻¹
same,"klim/Km of RCL insertion, with Nb42 and Nb64, +Vn ((μmol/ L)^−1 s^−1)",NBD P9 PAI-1,1.1
same,"SI by SDS-PAGE, with Nb42, +Vn",wild-type PAI-1 (human) [1],1
same,"SI by SDS-PAGE, with Nb42, −Vn",wild-type PAI-1 (human) [1],1.1
same,"SI by SDS-PAGE, with Nb42 and Nb64, +Vn",wild-type PAI-1 (human) [1],> 30
same,"SI by SDS-PAGE, with Nb42 and Nb64, −Vn",wild-type PAI-1 (human) [1],16.9
same,"SI by SDS-PAGE, with Nb64, +Vn",wild-type PAI-1 (human) [1],> 30
same,"SI by SDS-PAGE, with Nb64, −Vn",wild-type PAI-1 (human) [1],15.6
same,"stoichiometry of inhibition (SI) by SDS-PAGE, no Nb, −Vn",wild-type PAI-1 (human) [1],1.1
two-chain urokinase-type plasminogen activator (enzyme),"klim/Km of RCL insertion, no Nb, −Vn ((μmol/ L)^−1 s^−1)",NBD P9 PAI-1,11.3
same,"klim/Km of RCL insertion, with Nb64, −Vn ((μmol/ L)^−1 s^−1)",NBD P9 PAI-1,14.7
same,"SI by SDS-PAGE, no Nb, −Vn",wild-type PAI-1 (human) [1],1.1
same,"SI by SDS-PAGE, with Nb42, +Vn",wild-type PAI-1 (human) [1],1.1
same,"SI by SDS-PAGE, with Nb42, −Vn",wild-type PAI-1 (human) [1],1.2
same,"SI by SDS-PAGE, with Nb42 and Nb64, −Vn",wild-type PAI-1 (human) [1],12.4
same,"SI by SDS-PAGE, with Nb64, +Vn",wild-type PAI-1 (human) [1],10
same,"SI by SDS-PAGE, with Nb64, −Vn",wild-type PAI-1 (human) [1],27
same,"percent substrate reaction by SDS-PAGE, with Nb64, +Vn",wild-type PAI-1 (human) [2],90%
same,"percent substrate reaction by SDS-PAGE, with Nb64, −Vn",wild-type PAI-1 (human) [2],96%
B1,"IC50 of inhibition of PAI-1-wt activity, PAI-1/tPA, −Vn",wild-type PAI-1 (human) [3],87 nM
B2,"IC50 of inhibition of PAI-1-wt activity, PAI-1/tPA, −Vn",wild-type PAI-1 (human) [3],16 nM
same,"IC50 of inhibition of PAI-1-wt activity, PAI-1/uPA, −Vn",wild-type PAI-1 (human) [3],4.6 nM
same,"IC50 of inhibition of the activity of Vn-bound PAI-1-wt, PAI-1/tPA",wild-type PAI-1 (human) [3],2.8 nM
same,"IC50 of inhibition of the activity of Vn-bound PAI-1-wt, PAI-1/uPA",wild-type PAI-1 (human) [3],2 nM
same,"maximum inhibition of PAI-1-wt activity, PAI-1/uPA, −Vn",wild-type PAI-1 (human) [3],88%
same,"maximum inhibition of the activity of Vn-bound PAI-1-wt, PAI-1/tPA",wild-type PAI-1 (human) [3],93%
